As usually defined, the Kd is the constant that tells how readily two partners part at equilibrium. Low readings indicate tighter binding, high ones weaker binding. For orientation: IC50 means the midpoint of a concentration-inhibition curve. Low values mean greater potency, high ones weaker potency.

In series [1] the target is T1, IL-12 (mouse, p35/p40 heterodimer) (Mus musculus, UniProt P43431;P43432 SEQ:23-215,SEQ:23-335).
T1 sequence 1: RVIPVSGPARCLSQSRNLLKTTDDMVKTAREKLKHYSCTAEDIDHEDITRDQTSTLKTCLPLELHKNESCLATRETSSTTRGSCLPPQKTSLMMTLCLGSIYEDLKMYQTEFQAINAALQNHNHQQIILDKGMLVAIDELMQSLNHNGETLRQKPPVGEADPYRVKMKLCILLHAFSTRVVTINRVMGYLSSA
T1 sequence 2: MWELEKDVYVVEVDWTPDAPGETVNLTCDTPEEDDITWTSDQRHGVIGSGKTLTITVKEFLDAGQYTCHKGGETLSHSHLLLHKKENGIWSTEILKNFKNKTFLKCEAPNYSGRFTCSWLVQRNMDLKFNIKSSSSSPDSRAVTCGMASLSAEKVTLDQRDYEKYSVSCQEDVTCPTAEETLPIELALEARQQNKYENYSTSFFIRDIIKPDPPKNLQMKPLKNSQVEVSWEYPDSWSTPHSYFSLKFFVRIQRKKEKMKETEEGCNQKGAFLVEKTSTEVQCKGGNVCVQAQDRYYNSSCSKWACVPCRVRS
Briefly: filter; 1X PBS, 0.1 mg/mL BSA, 30 min RT. To be noted: label: 32P. How it is done: (§1) rRfY mIL-23 Protein Binding Analysis: Dot blot binding assays were performed throughout the selections to monitor the protein binding affinity of the pools as previously described. When a significant level of binding of RNA in the presence of mIL-23 was observed, the pools were cloned using a TOPO TA cloning kit (Invitrogen, Carlsbad, Calif.) according to the manufacturer's instructions. For both mIL-23 selections, the Round 7 pool templates were cloned, and 16 individual clones from each selection were assayed using an 8-point mIL-23 titration. Seven of the 32 total clones screened had specific binding curves and are listed below in Table 16. […] Clones with high affinity to mIL-23 were subsequently screened for protein binding against mouse IL-12, human IL-23 and human IL-12 in the same manner.

For series [2], the target named is T2, IL-23 (mouse, p19/p40 heterodimer) (Mus musculus, UniProt Q9EQ14;P43432 SEQ:22-196,SEQ:23-335).
T2 sequence 1: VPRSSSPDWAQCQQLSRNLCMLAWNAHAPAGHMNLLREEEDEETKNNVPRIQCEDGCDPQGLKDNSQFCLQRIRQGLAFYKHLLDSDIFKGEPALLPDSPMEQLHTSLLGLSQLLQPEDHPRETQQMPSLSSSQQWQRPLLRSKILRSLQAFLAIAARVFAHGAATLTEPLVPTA
T2 sequence 2: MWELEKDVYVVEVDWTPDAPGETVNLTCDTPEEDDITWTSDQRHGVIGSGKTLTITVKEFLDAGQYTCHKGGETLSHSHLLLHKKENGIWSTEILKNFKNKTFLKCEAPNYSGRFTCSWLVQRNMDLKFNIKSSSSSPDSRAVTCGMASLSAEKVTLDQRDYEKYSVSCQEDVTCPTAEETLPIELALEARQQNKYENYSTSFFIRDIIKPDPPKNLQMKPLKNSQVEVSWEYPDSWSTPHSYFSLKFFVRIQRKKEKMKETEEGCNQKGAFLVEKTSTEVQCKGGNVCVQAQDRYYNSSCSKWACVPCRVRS
Briefly: filter; 1X PBS, 0.1 mg/mL BSA, 30 min RT. The conditions noted are these: tags: isolated in-house; label: 32P. How it is done: as §1

For series [3], the target named is T3, IL-23 (human, p19/p40 heterodimer) (Homo sapiens, UniProt Q9NPF7;P29460 SEQ:20-189,SEQ:23-328). Briefly: filter; 1X PBS, 0.1 mg/mL BSA, 30 min RT. The conditions noted are these: tags: R&D Systems, carrier free; label: 32P. How it is done:
as §1

The target of series [4] is IL-12 (human, p35/p40 heterodimer) (Homo sapiens, UniProt P29459;P29460 SEQ:57-253,SEQ:23-328). Briefly: filter; 1X PBS, 0.1 mg/mL BSA, 30 min RT. The conditions noted are these: label: 32P. How it is done: as §1
IL-12 (human, p35/p40 heterodimer), sequence (P29459 23-219, chain 1 of 2): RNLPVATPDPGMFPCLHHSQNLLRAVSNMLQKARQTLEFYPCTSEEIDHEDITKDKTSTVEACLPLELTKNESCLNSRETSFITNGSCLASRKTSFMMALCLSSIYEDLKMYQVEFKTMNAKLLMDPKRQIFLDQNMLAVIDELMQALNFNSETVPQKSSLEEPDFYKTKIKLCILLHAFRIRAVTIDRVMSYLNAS
IL-12 (human, p35/p40 heterodimer), sequence (P29460 23-328, chain 2 of 2): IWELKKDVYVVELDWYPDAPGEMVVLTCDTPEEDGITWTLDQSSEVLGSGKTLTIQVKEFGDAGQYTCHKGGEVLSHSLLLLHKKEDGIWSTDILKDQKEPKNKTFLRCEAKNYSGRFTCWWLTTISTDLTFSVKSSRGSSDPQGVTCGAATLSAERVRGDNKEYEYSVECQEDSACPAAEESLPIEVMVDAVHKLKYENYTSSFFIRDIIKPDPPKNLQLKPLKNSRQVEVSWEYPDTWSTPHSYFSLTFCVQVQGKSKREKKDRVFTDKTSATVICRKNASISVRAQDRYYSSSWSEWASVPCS
Series [5] addresses T2, IL-23 (mouse, p19/p40 heterodimer). Briefly: cell_activity; TransAM STAT3. To be noted: tags: isolated in-house. How it is done: In summary, the cell-based assay was conducted by isolating the peripheral blood mononuclear cells (PBMCs) from whole blood using a Histopaque gradient (Sigma, St. Louis, Mo.). The PBMCs were cultured for 3 to 5 days at 37° C./5% CO₂ in Peripheral Blood Medium (Sigma) which contains PHA, supplemented with IL-2 (100 units/mL) (R&D Systems, Minneapolis, Minn.), to generate PHA Blasts. To test IL-23 aptamers, the PHA Blasts were washed twice with 1×PBS, then serum starved for four hours in RPMI, 0.20% FBS. After serum starvation, approximately 2 million cells were aliquotted into appropriately labeled eppendorf tubes. hIL-23 at a final constant concentration of 3 ng/mL (R&D Systems, Minneapolis, Minn.) was combined with a dilution series of various IL-23 aptamers as described in Example 1, and the cytokine/aptamer mixture was added to the aliquotted cells in a final volume of 100 μl and incubated at 37° C. for 10-12 minutes. The incubation reaction was stopped by adding 1 mL of ice-cold PBS with 1.5 mM Na₃VO₄. Cell lysates were made using the lysis buffer provided by the TransAM™ STAT 3 assay following the manufacturer's instructions. FIG. 20 depicts a flow summary of the protocol used for the cell based assay.
The protocol used was identical to that previously described except mouse IL-23 was used to induce STAT 3 activation in PHA Blasts at a concentration of 30 ng/mL, instead of using human IL-23 at a concentration of 3 ng/mL.

Series [6] addresses T3, IL-23 (human, p19/p40 heterodimer). The series is described as follows: filter; 1X PBS, tRNA, ssDNA, BSA, 30 min RT. To be noted: tags: R&D Systems, carrier free; label: 32P.

T3 sequence (Q9NPF7 20-189, chain 1 of 2): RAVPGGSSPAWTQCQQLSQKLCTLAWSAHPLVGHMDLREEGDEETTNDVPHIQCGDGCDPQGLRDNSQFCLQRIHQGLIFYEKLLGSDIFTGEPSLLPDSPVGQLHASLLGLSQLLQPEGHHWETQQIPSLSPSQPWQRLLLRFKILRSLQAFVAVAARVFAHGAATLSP
T3 sequence (P29460 23-328, chain 2 of 2): as the sequence (P29460 23-328, chain 2 of 2) above

B1: ARC1629 (ssRNA)
RNA: GGAGCGCACUCAGCCACCGUAAUUCACAAGGUCCCUGAGUGCAGGGUUGUAUGUUUGUUUCGACCUCUCUGCUAGC
modifications: 2'-F all C and U (rRfY)
For B1, the Kd in series [1] stood at 103 nM; in series [2], 34 nM; in series [3] it was 31 nM; in series [4], 75 nM.

B2: ARC1739 (ARC1628 minimer) (ssRNA)
RNA: GGGCACUCAGCCACAGGUGGCUUAAUACUGUAAAGACGUGCCC
modifications: 2'-F C,U
The molecule B2 showed a 50% inhibitory concentration (IC50) in series [5] of 18 nM.

B3: dRmY clone SEQ 96 (mixed)
RNA: GGGAGAGGAGAGAACGUUCUACACGGGGUGGGAGGGGCGAGUCGCAUGGAUGCGCUGUCGAUCGAUCGAUCGAUG
modifications: 2'-deoxy A and G, 2'-OMe C and U (dRmY)
Turning to B3, the affinity in series [6], expressed as Kd, was 210 nM. This lies in the sub-micromolar range.

B4: ARC1630 (ssRNA)
RNA: GGAGCGCACUCAGCCACUCUACUCGAUAUAGUUUAUCGAGCCGGUGGUAGAUUAUGAUUUCGACCUCUCUGCUAGC
modifications: 2'-F all C and U (rRfY)
B4: the Kd in series [1] is 18 nM; in series [2], 14 nM; in series [3], 65 nM; in series [4], 239 nM.

B5: ARC1633 (ssRNA)
RNA: GGAGCGCACUCAGCCACAGCUCGGUGGCUUAAUAUCUAUGUGAACGUGCGCAACAGCUUUCGACCUCUCUGCUAGC
modifications: 2'-F all C and U (rRfY)
In the case of B5, the Kd in series [1] was 44 nM; in series [2], 17 nM; in series [3] it was 79 nM; in series [4], 195 nM.

B6: ARC1633 (ssRNA)
RNA: GGAGCGCACUCAGCCACAGCUCGGUGGCUUAAUAUCUAUGUGAACGUGCGCAACAGCUUUCGACCUCUCUGCUAGC
modifications: 2'-F C,U
B6 had an IC50 in series [5] of 31 nM. In other words, the double-digit nanomolar range.

B7: dRmY clone SEQ 95 (mixed)
RNA: GGGAGAGGAGAGAACGUUCUACGGGCUACGGGGAUGGAGGGUGGGUCCCAGACGCUGUCGAUCGAUCGAUCGAUG
modifications: 2'-deoxy A and G, 2'-OMe C and U (dRmY)
The molecule B7 had a Kd in series [6] of 433 nM.

B8: dRmY clone SEQ 93 (mixed)
RNA: GGGAGAGGAGAGAACGUUCUACGUAACGGGGUGGGAGGGGCGAACAACUUGACGCUGUCGAUCGAUCGAUCGAUG
modifications: 2'-deoxy A and G, 2'-OMe C and U (dRmY)
Regarding B8, in series [6], the Kd stood at 186 nM.

B9: ARC1634 minimer (ssRNA)
RNA: GGGCACUCAGCCACCUUGGGCUUAAUACCUAUCGGAUGUGCCC
modifications: 2'-F C,U
B9: in series [5], the IC50 was 26 nM.

B10: ARC1628 (ssRNA)
RNA: GGAGCGCACUCAGCCACAGGUGGCUUAAUACUGUAAAGACGUGCGCGCAGAGGGAUUUUCGACCUCUCUGCUAGC
modifications: 2'-F all C and U (rRfY)
Consider B10, for which the Kd in series [1] was found to be 6 nM; in series [2], 2 nM; in series [3], 52 nM; in series [4] it was 161 nM.

B11: ARC1628 (ssRNA)
RNA: GGAGCGCACUCAGCCACAGGUGGCUUAAUACUGUAAAGACGUGCGCGCAGAGGGAUUUUCGACCUCUCUGCUAGC
modifications: 2'-F C,U
In the case of B11, the IC50 in series [5] is 37 nM. In other words, the double-digit nanomolar range.

B12: ARC1634 (ssRNA)
RNA: GGAGCGCACUCAGCCACCUUGGGCUUAAUACCUAUCGGAUGUGCGCCUAGCACGGAAUUUCGACCUCUCUGCUAGC
modifications: 2'-F all C and U (rRfY)
For the molecule B12, the Kd worked out at 29 nM in series [1], 3 nM in series [2], 39 nM in series [3] and 63 nM in series [4].

B13: ARC1634 (ssRNA)
RNA: GGAGCGCACUCAGCCACCUUGGGCUUAAUACCUAUCGGAUGUGCGCCUAGCACGGAAUUUCGACCUCUCUGCUAGC
modifications: 2'-F C,U
B13: 9 nM corresponded to half-maximal inhibition in series [5] (IC50).

B14: ARC1632 (ssRNA)
RNA: GGAGCGCACUCAGCCACCGGCUUAAUAUCCAAUAGGAACGUUCGCUCUGAGCAGGCGUUUCGACCUCUCUGCUAGC
modifications: 2'-F all C and U (rRfY)
Turning to B14, the Kd in series [1] was found to be 16 nM; in series [2], 13 nM; in series [3], 91 nM; in series [4], 186 nM.

B15: ARC1632 (ssRNA)
RNA: GGAGCGCACUCAGCCACCGGCUUAAUAUCCAAUAGGAACGUUCGCUCUGAGCAGGCGUUUCGACCUCUCUGCUAGC
modifications: 2'-F C,U
B15 registered an IC50 in series [5] of 18 nM.

B16: ARC1631 (ssRNA)
RNA: GGAGCGCACUCAGCCACGCCUACAAUUCACUGUGAUAUAUCGAAUUAUAGCCCUGGUUUCGACCUCUCUGCUAGC
modifications: 2'-F all C and U (rRfY)
Turning to B16, the Kd in series [1] is 72 nM; in series [2], 33 nM; in series [3], 39 nM; in series [4], 69 nM.

B17: ARC1633 minimer (ssRNA)
RNA: GGGCACUCAGCCACAGCUCGGUGGCUUAAUAUCUAUGUGAACGUGCCC
modifications: 2'-F C,U
The molecule B17 returned an IC50 in series [5] of 7 nM.

(Values after patent US20060193821, “Aptamers to the human IL-12 cytokine family and their use as autoimmune disease therapeutics” (published 2006).)
